Assay results from article PMC3377666.

Columns and labels:
[1] = biological target: recombinant human Pol δ holoenzyme (heterotetramer p125/p50/p68/p12) (human) (UniProt P28340)
[2] = biological target: recombinant human Pol δ core+p68 trimer (p125/p50/p68) (human) (UniProt P28340)
[3] = biological target: recombinant human Pol δ core dimer (p125/p50) (human) (UniProt P28340)
[4] = biological target: recombinant human Pol δ core+p12 trimer (p125/p50/p12) (human) (UniProt P28340)
recombinant human Pol δ core+p12 trimer (p125/p50/p12) (human), sequence (P28340 whole entry, stated change not applied, chain 1 of 3): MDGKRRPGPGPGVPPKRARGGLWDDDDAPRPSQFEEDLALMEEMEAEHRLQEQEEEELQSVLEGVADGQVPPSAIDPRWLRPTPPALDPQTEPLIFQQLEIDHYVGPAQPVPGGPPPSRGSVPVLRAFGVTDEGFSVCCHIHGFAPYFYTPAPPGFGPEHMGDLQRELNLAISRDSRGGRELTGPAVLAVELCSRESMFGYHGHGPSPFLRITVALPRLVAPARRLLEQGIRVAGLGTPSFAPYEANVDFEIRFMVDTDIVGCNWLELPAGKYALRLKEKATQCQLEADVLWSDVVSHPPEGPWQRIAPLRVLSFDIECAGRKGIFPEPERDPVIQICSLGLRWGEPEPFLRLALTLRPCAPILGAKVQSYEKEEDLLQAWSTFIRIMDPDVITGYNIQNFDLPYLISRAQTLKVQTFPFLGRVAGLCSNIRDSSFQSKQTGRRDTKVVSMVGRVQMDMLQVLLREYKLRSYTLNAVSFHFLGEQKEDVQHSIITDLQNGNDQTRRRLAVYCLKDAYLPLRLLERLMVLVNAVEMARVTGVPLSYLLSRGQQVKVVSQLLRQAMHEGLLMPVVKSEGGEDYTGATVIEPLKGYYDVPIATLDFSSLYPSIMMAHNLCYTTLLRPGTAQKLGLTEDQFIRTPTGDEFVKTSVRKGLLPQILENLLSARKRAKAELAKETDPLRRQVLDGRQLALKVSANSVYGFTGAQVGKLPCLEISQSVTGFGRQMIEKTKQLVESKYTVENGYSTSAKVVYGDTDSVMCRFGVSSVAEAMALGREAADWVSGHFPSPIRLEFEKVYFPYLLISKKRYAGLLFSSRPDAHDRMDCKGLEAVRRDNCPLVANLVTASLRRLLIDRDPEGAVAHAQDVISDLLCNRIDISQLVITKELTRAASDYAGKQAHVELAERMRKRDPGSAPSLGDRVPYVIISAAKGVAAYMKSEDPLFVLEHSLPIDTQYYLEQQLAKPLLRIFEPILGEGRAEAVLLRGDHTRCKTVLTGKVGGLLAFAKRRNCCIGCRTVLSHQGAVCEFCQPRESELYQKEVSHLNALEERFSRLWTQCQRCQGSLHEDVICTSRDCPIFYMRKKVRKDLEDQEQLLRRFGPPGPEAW
recombinant human Pol δ core+p12 trimer (p125/p50/p12) (human), sequence (P49005 whole entry, stated change not applied, chain 2 of 3, further chain): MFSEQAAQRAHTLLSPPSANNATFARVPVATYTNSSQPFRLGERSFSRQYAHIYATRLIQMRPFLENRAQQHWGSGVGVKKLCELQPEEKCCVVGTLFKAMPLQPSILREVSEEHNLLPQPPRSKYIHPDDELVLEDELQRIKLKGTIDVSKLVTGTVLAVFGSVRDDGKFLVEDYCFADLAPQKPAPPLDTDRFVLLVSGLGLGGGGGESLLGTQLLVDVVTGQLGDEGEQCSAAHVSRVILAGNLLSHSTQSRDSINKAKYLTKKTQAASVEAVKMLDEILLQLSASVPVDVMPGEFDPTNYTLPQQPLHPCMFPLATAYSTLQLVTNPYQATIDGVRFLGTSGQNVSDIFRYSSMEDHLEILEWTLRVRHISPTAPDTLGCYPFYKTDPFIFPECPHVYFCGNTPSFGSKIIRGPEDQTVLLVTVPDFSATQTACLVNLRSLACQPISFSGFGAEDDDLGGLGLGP
recombinant human Pol δ core+p12 trimer (p125/p50/p12) (human), sequence (Q9HCU8 whole entry, stated change not applied, chain 3 of 3, further chain): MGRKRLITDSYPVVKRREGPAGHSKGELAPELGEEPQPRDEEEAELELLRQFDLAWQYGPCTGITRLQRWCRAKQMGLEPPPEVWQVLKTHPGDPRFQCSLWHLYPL

recombinant human PCNA (Proliferating Cell Nuclear Antigen), sequence (P12004 whole entry): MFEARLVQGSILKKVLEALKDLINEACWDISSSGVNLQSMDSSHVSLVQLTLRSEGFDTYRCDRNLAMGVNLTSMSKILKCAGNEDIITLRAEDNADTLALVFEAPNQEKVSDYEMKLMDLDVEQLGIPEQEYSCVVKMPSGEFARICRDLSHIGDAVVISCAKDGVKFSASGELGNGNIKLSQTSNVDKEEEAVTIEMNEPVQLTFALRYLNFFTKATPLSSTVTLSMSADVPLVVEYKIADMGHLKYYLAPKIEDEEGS
recombinant human Pol δ core+p68 trimer (p125/p50/p68) (human), sequence (P28340 whole entry, stated change not applied, chain 1 of 3): as the sequence (P28340 whole entry, stated change not applied, chain 1 of 3) above
recombinant human Pol δ core+p68 trimer (p125/p50/p68) (human), sequence (P49005 whole entry, stated change not applied, chain 2 of 3, further chain): as the sequence (P49005 whole entry, stated change not applied, chain 2 of 3, further chain) above
recombinant human Pol δ core+p68 trimer (p125/p50/p68) (human), sequence (Q15054 whole entry, stated change not applied, chain 3 of 3, further chain): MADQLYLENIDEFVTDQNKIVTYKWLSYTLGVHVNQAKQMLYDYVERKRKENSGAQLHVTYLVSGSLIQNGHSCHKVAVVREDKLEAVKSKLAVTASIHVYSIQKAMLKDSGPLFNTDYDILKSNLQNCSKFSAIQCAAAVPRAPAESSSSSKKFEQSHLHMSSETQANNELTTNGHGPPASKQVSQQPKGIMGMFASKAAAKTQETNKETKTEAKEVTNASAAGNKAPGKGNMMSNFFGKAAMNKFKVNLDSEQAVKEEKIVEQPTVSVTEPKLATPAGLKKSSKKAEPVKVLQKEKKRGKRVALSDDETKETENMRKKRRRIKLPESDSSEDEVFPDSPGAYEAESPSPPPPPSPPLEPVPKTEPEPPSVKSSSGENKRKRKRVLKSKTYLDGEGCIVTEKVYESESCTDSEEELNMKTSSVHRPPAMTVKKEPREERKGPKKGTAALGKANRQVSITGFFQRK
recombinant human Pol δ core dimer (p125/p50) (human), sequence (P28340 whole entry, stated change not applied, chain 1 of 2): as the sequence (P28340 whole entry, stated change not applied, chain 1 of 3) above
recombinant human Pol δ core dimer (p125/p50) (human), sequence (P49005 whole entry, stated change not applied, chain 2 of 2, further chain): as the sequence (P49005 whole entry, stated change not applied, chain 2 of 3, further chain) above
recombinant human Pol δ holoenzyme (heterotetramer p125/p50/p68/p12) (human), sequence (P28340 whole entry, stated change not applied, chain 1 of 4): as the sequence (P28340 whole entry, stated change not applied, chain 1 of 3) above
recombinant human Pol δ holoenzyme (heterotetramer p125/p50/p68/p12) (human), sequence (P49005 whole entry, stated change not applied, chain 2 of 4, further chain): as the sequence (P49005 whole entry, stated change not applied, chain 2 of 3, further chain) above
recombinant human Pol δ holoenzyme (heterotetramer p125/p50/p68/p12) (human), sequence (Q15054 whole entry, stated change not applied, chain 3 of 4, further chain): as the sequence (Q15054 whole entry, stated change not applied, chain 3 of 3, further chain) above
recombinant human Pol δ holoenzyme (heterotetramer p125/p50/p68/p12) (human), sequence (Q9HCU8 whole entry, stated change not applied, chain 4 of 4, further chain): as the sequence (Q9HCU8 whole entry, stated change not applied, chain 3 of 3, further chain) above

- apparent Kd for PCNA: PCNA concentration for half-maximal stimulation of polymerase activity on poly(dA)/oligo(dT), hyperbolic fit [1]: 7.1 nM trimer
- apparent Kd for PCNA: PCNA concentration for half-maximal stimulation of polymerase activity on poly(dA)/oligo(dT), hyperbolic fit [2]: 9.3 nM trimer
- apparent Kd for PCNA: PCNA concentration for half-maximal stimulation of polymerase activity on poly(dA)/oligo(dT), hyperbolic fit [3]: 73 nM trimer
- apparent Kd for PCNA: PCNA concentration for half-maximal stimulation of polymerase activity on poly(dA)/oligo(dT), hyperbolic fit [4]: 8.7 nM trimer
Substance: recombinant human PCNA (Proliferating Cell Nuclear Antigen) (from UniProt P12004 1-261) (natural protein)
